Experimental data: the supplement of paper PMC5998384

Columns and labels:
[1] = system: HeLa Kyoto; experiment: melting temperature (median over replicates), in situ; higher = more thermally stable
[2] = system: HeLa Kyoto; experiment: solubility change mitosis vs G1/S (difference of NP-40 vs SDS log2 ratios) (log2 ratio difference); higher = more soluble in mitosis
[3] = system: HeLa Kyoto; experiment: solubility in G1/S (NP-40 vs SDS abundance) (log2 ratio); higher = more soluble; conditions: cell cycle stage: G1/S
[4] = system: HeLa Kyoto; experiment: thermal stability score vs G1/S (z-score of summed log2 fold changes over temperatures); higher = more thermally stable than in G1/S
[5] = cell cycle stage: early G1 (4.5 h after nocodazole release)
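Wherever melting temperature (median over replicates), in situ is given: HeLa Kyoto cells synchronized by double thymidine or nocodazole block, proteins quantified by TMT10plex mass spectrometry, three independent biological replicates.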
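Wherever solubility change mitosis vs G1/S (difference of NP-40 vs SDS log2 ratios) is given: synchronized HeLa Kyoto cells (double thymidine block for G1/S, nocodazole release for mitosis), protein amounts in NP-40 versus SDS lysates quantified by mass spectrometry, three biological replicates.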
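Wherever solubility in G1/S (NP-40 vs SDS abundance) is given: HeLa Kyoto cells arrested at G1/S by double thymidine block, proteins quantified by TMT10plex mass spectrometry in mild NP-40 versus SDS extracts, three biological replicates.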
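Wherever thermal stability score vs G1/S (z-score of summed log2 fold changes over temperatures) is given: synchronized HeLa Kyoto cells, proteins quantified by TMT10plex mass spectrometry, three biological replicates, mitosis taken 0.5 h after nocodazole release, G1/S directly after double thymidine block.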

Row | Substance | melting temperature ([1]; cell cycle stage: G1/S) | melting temperature ([1]; cell cycle stage: mitosis) | solubility change mitosis (log2) [2] | solubility in G1/S (log2) [3] | thermal stability score [4, 5] | thermal stability score ([4]; cell cycle stage: mitosis)
1 | MVEPGQDLLLAALSESGISPNDLFDIDGGDAGLATPMPTPSVQQSVPLSALELGLETEAAVPVKQEPETVPTPALLNVRQQPPSTTTFVLNQINHLPPLGSTIVMTKTPPVTTNRQTITLTKFIQTTASTRPSVSAPTVRNAMTSAPSKDQVQLKDLLKNNSLNELMKLKPPANIAQPVATAATDVSNGTVKKESSNKEGARMWINDMKMRSFSPTMKVPVVKEDDEPEEEDEEEMGHAETYAEYMPIKLKIGLRHPDAVVETSSLSSVTPPDVWYKTSISEETIDNGWLSALQLEAITYAAQQHETFLPNGDRAGFLIGDGAGVGKGRTIAGIIYENYLLSRKRALWFSVSNDLKYDAERDLRDIGAKNILVHSLNKFKYGKISSKHNGSVKKGVIFATYSSLIGESQSGGKYKTRLKQLLHWCGDDFDGVIVFDECHKAKNLCPVGSSKPTKTGLAVLELQNKLPKARVVYASATGASEPRNMAYMNRLGIWGEGTPFREFSDFIQAVERRGVGAMEIVAMDMKLRGMYIARQLSFTGVTFKIEEVLLSQSYVKMYNKAVKLWVIARERFQQAADLIDAEQRMKKSMWGQFWSAHQRFFKYLCIASKVKRVVQLAREEIKNGKCVVIGLQSTGEARTLEALEEGGGELNDFVSTAKGVLQSLIEKHFPAPDRKKLYSLLGIDLTAPSNNSSPRDSPCKENKIKKRKGEEITREAKKARKVGGLTGSSSDDSGSESDASDNEESDYESSKNMSSGDDDDFNPFLDESNEDDENDPWLIRKDHKKNKEKKKKKSIDPDSIQSALLASGLGSKRPSFSSTPVISPAPNSTPANSNTNSNSSLITSQDAVERAQQMKKDLLDKLEKLAEDLPPNTLDELIDELGGPENVAEMTGRKGRVVSNDDGSISYESRSELDVPVEILNITEKQRFMDGDKNIAIISEAASSGISLQADRRAKNQRRRVHMTLELPWSADRAIQQFGRTHRSNQVTAPEYVFLISELAGEQRFASIVAKRLESLGALTHGDRRATESRDLSRFNFDNKYGRNALEIVMKSIVNLDSPMVSPPPDYPGEFFKDVRQGLIGVGLINVEDRSGILTLDKDYNNIGKFLNRILGMEVHQQNALFQYFADTLTAVVQNAKKNGRYDMGILDLGSGDEKVRKSDVKKFLTPGYSTSGHVELYTISVERGMSWEEATKIWAELTGPDDGFYLSLQIRNNKKTAILVKEVNPKKKLFLVYRPNTGKQLKLEIYADLKKKYKKVVSDDALMHWLDQYNSSADTCTHAYWRGNCKKASLGLVCEIGLRCRTYYVLCGSVLSVWTKVEGVLASVSGTNVKMQIVRLRTEDGQRIVGLIIPANCVSPLVNLLSTSDQSQQLAVQQKQLWQQHHPQSITNLSNA [SBNO1] | 50.9 °C | 51.4 °C | -0.158 | 0.0971 | 1.19 | 2.1
2 | MDISTRSKDPGSAERTAQKRKFPSPPHSSNGHSPQDTSTSPIKKKKKPGLLNSNNKEQSELRHGPFYYMKQPLTTDPVDVVPQDGRNDFYCWVCHREGQVLCCELCPRVYHAKCLRLTSEPEGDWFCPECEKITVAECIETQSKAMTMLTIEQLSYLLKFAIQKMKQPGTDAFQKPVPLEQHPDYAEYIFHPMDLCTLEKNAKKKMYGCTEAFLADAKWILHNCIIYNGGNHKLTQIAKVVIKICEHEMNEIEVCPECYLAACQKRDNWFCEPCSNPHPLVWAKLKGFPFWPAKALRDKDGQVDARFFGQHDRAWVPINNCYLMSKEIPFSVKKTKSIFNSAMQEMEVYVENIRRKFGVFNYSPFRTPYTPNSQYQMLLDPTNPSAGTAKIDKQEKVKLNFDMTASPKILMSKPVLSGGTGRRISLSDMPRSPMSTNSSVHTGSDVEQDAEKKATSSHFSASEESMDFLDKSTASPASTKTGQAGSLSGSPKPFSPQLSAPITTKTDKTSTTGSILNLNLDRSKAEMDLKELSESVQQQSTPVPLISPKRQIRSRFQLNLDKTIESCKAQLGINEISEDVYTAVEHSDSEDSEKSDSSDSEYISDDEQKSKNEPEDTEDKEGCQMDKEPSAVKKKPKPTNPVEIKEELKSTSPASEKADPGAVKDKASPEPEKDFSEKAKPSPHPIKDKLKGKDETDSPTVHLGLDSDSESELVIDLGEDHSGREGRKNKKEPKEPSPKQDVVGKTPPSTTVGSHSPPETPVLTRSSAQTSAAGATATTSTSSTVTVTAPAPAATGSPVKKQRPLLPKETAPAVQRVVWNSSSKFQTSSQKWHMQKMQRQQQQQQQQNQQQQPQSSQGTRYQTRQAVKAVQQKEITQSPSTSTITLVTSTQSSPLVTSSGSMSTLVSSVNADLPIATASADVAADIAKYTSKMMDAIKGTMTEIYNDLSKNTTGSTIAEIRRLRIEIEKLQWLHQQELSEMKHNLELTMAEMRQSLEQERDRLIAEVKKQLELEKQQAVDETKKKQWCANCKKEAIFYCCWNTSYCDYPCQQAHWPEHMKSCTQSATAPQQEADAEVNTETLNKSSQGSSSSTQSAPSETASASKEKETSAEKSKESGSTLDLSGSRETPSSILLGSNQGSDHSRSNKSSWSSSDEKRGSTRSDHNTSTSTKSLLPKESRLDTFWD [ZMYND8] | 48.5 °C | 50.2 °C | 0.163 | -0.387 | 1.53 | 3.16
3 | TRIOBP | 49.1 °C | 49.3 °C | 0.0573 | 0.139 | 0.418 | 1.17
